Assay results from patent US20180155406A1 (Sanofi, published 2018).
Numbered stars: 1 amine (or outer) side, 2 acyl side, 3 side chain; on linkers, the order of the positions; unused ones are H or OH. Square brackets hold non-standard residues; d marks the D form. Side chains are listed from the residue outwards. Ends that are not written are not given here. * marks the point of attachment. γGlu = O=C(O)[C@H](CCC(=O)[*:2])N[*:1]; Palmitoyl = CCCCCCCCCCCCCCCC(=O)*; gAAA = not defined here; AEEA = NCCOCCOCC(=O)O; Aib = CC(C)(N)C(=O)O

Key:
Assay in all cases: cell-based or functional assay
[1] = target: human glucagon receptor (human) (UniProt P47871)
[2] = target: human GLP-1 receptor (human) (UniProt P43220)
human glucagon receptor [3] = target: T1, human glucagon receptor (human, UniProt P47871 26-477)
human GLP-1 receptor = human GLP-1 receptor (human, UniProt P43220 24-463)
human GIP receptor = target: T2, human GIP receptor (human, UniProt P48546 22-466)
T2 sequence (looked up): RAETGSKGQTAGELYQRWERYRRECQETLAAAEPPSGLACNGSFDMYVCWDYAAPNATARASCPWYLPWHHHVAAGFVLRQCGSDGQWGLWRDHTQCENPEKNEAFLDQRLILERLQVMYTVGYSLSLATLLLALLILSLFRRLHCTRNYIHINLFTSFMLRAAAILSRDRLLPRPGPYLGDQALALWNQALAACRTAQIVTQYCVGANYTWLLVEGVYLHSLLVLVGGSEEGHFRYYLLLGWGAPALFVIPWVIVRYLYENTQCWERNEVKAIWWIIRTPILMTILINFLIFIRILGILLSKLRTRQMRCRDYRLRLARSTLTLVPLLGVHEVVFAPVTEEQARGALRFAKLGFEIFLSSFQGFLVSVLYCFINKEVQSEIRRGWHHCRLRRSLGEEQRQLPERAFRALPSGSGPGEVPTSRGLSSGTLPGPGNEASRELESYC

human glucagon receptor [4] = target: T1, human glucagon receptor; remark: listed apart in the source

T1 sequence (P47871 26-477): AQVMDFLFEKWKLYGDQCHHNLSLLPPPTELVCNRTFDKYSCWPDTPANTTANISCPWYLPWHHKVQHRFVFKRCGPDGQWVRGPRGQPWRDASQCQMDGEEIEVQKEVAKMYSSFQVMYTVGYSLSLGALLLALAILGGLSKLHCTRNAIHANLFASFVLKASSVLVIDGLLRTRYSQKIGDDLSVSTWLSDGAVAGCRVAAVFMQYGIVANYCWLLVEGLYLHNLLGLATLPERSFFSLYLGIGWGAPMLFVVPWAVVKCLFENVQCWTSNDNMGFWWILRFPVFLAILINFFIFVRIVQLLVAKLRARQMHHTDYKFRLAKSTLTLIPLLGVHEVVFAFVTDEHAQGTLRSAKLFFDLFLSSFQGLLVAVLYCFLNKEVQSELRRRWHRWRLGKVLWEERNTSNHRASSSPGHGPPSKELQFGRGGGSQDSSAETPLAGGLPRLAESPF
Sequence of human glucagon receptor (human) (P47871 26-477): as above
Sequence of human GLP-1 receptor (human) (P43220 24-463): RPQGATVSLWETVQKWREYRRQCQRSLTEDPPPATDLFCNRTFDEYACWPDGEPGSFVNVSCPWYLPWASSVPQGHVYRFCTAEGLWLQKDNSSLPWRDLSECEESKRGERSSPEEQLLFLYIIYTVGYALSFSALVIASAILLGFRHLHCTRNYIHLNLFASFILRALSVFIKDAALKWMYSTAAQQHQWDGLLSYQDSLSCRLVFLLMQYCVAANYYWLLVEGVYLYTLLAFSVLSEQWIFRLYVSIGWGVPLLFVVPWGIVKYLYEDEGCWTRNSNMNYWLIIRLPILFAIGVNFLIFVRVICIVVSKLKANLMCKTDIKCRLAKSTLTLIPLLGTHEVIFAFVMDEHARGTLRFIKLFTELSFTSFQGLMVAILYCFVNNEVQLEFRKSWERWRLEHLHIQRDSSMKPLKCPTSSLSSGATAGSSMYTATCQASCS

exendin-4 (peptide)
EC50 hGlucagon R [pM] (cAMP formation) [1]: > 1e+07 pM | EC50 hGLP-1 R [pM] (cAMP formation) [2]: 0.4 pM

H[Aib]HGTFTSDLSKLK([γGlu-AEEA-gAAA-Palmitoyl])EEQRQKEFIEWLKA[dA]GHPS[Aib]KPPPK-NH2 (reading uncertain) [SEQ ID NO: 23]
EC50 hGlucagon R (cAMP formation) (human glucagon receptor [3]): 6.8 pM | EC50 hGLP-1R (cAMP formation) (human GLP-1 receptor): 1.4 pM | EC50 hGIP R (cAMP formation) (human GIP receptor): 1.5 pM

HXQGTFTSDLSKQKDEQRAKEFIEWLKAGGPSSGAPPPS (Aib at 2; Lys14 side chain acylated with gGlu-Stea; C-terminal amide) [SEQ ID NO: 28]
EC50 hGlucagon-R (human glucagon receptor [4]): 1.9 pM
